# Measurements taken from patent US20230285394A1, “METHODS OF TREATMENT OF NON-SMALL-CELL LUNG CARCINOMA USING TELISOTUZUMMAB VEDOTIN AND OSIMERTINIB” (AbbVie Biotherapeutics Inc., priority 2022, published 2023).
# B1: telisotuzumab vedotin (conjugate, chains of the INN, looked up)
# VH: QVQLVQSGAEVKKPGASVKVSCKASGYIFTAYTMHWVRQAPGQGLEWMGWIKPNNGLANYAQKFQGRVTMTRDTSISTAYMELSRLRSDDTAVYYCARSEITTEFDYWGQGTLVTVSS
# VL: DIVMTQSPDSLAVSLGERATINCKSSESVDSYANSFLHWYQQKPGQPPKLLIYRASTRESGVPDRFSGSGSGTDFTLTISSLQAEDVAVYYCQQSKEDPLTFGGGTKVEIK
# modifications: vc-MMAE payload
# notes: ADC of the c-Met targeting antibody ABT-700 conjugated to monomethyl auristatin E (MMAE) through a valine citrulline linker
# Columns and labels:
# [1] = tested on: c-Met positive (≥25% 3+ IHC staining) advanced non-squamous NSCLC, EGFR mutant; experiment: Phase 2 study (NCT03539536) of Teliso-V monotherapy, objective response rate; format: in vivo, human; details: Teliso-V monotherapy 1.9 mg/kg
# c-Met expressing NSCLC = experiment: First in human phase I trial of Teliso-V monotherapy (NCT02099058), best overall response by c-Met IHC cutoff; format: in vivo
# Description: (§1) The clinical modeling data was obtained from the Teliso-V monotherapy trial NCT02099058. Abbreviations shown in FIG. 5 and determination of the values in the table are as follow: PPA (positive percent agreement): #oV positive uV positive/Total uV positive; NPA (Negative percent agreement): #oV negative uV negative/Total uV negative; OPA (Overall percent agreement): #oV positive uV positive+#oV negative uV negative/Total number of samples tested; PPV (Positive predictive value): #of oV positive uV positive/total #of oV positive; NPV (Negative predictive value): #of oV negative uV negative/Total oV negative. % BOR represents the percent best overall response.
# as §1, with “FIG. 6” for “FIG. 5”
# An analytical method comparison between SP44 Ultraview and SP44 OptiView on a large cohort of commercial NSCLC tissues was performed (FIG. 4). […] The overall percent agreement at this cutoff between the two assays was 93%. The first in human phase I clinical trial for Teliso-V monotherapy in NSCLC enrolled patients with an H-score of 150 using the SP44 UltraView assay. Upon re-scoring of the slides, the optimal cutoff utilizing the SP44 Ultraview IHC assay was ≥25% 3+ with a best overall response of 56%. The best overall response for the OptiView IHC assay at the same cutoff, ≥25% 3+, utilizing the phase I data through statistical modeling was 52% (FIG. 5).
# The first in human phase I clinical trial for Teliso-V monotherapy in NSCLC enrolled patients with an H-score of 150 using the SP44 UltraView assay. […] The best overall response for the OptiView IHC assay at the same cutoff, ≥50% 3+, utilizing the phase I data through statistical modeling was 63% (FIG. 6).
molecule,measurement,setting,value
B1,ORR (CR + PR),"[1]; non-squamous NSCLC EGFR mutant patients, c-Met ≥25% 3+, interim analysis",11.6%
same,ORR (CR + PR),[1]; subset of EGFR mutant subjects previously treated with osimertinib,0%
same,ORR (CR + PR),"[1]; subset of EGFR mutant subjects previously treated with osimertinib, listed as Teliso V",0%
same,best overall response,"c-Met expressing NSCLC; patients at ≥25% 3+ cutoff, OptiView IHC assay, phase I data through statistical modeling",52%
same,best overall response,"c-Met expressing NSCLC; patients at ≥25% 3+ cutoff, SP44 Ultraview IHC assay, re-scored slides",56%
same,best overall response,"c-Met expressing NSCLC; patients at ≥50% 3+ cutoff, OptiView IHC assay, phase I data through statistical modeling",63%
same,best overall response,"c-Met expressing NSCLC; patients at ≥50% 3+ membrane staining cutoff, SP44 Ultraview IHC assay, re-scored slides",67%
